In patent US20240270821A1, “GIP/GLP1/GCG TRI-RECEPTOR AGONISTS AND USES THEREOF” (priority 2023, published 2024):

Experiments:
Experiment in all cases: cell-based or functional assay
[1] = biological target: T1, human GIP receptor (human) (UniProt P48546)
T1 sequence (looked up): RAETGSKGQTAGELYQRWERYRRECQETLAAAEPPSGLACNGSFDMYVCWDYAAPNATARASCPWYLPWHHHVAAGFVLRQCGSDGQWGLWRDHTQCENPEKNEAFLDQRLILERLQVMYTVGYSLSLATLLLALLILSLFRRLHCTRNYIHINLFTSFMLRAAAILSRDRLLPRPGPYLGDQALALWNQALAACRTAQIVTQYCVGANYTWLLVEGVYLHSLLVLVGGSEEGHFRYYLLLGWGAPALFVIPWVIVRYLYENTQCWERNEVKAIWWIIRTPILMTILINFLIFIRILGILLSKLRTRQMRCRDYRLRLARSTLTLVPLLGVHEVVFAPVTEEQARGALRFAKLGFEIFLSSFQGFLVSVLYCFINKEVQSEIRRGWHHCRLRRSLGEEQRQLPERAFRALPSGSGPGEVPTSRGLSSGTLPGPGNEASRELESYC

[2] = biological target: human glucagon receptor (human) (UniProt P47871)
Sequence of human glucagon receptor (human) (P47871 26-477): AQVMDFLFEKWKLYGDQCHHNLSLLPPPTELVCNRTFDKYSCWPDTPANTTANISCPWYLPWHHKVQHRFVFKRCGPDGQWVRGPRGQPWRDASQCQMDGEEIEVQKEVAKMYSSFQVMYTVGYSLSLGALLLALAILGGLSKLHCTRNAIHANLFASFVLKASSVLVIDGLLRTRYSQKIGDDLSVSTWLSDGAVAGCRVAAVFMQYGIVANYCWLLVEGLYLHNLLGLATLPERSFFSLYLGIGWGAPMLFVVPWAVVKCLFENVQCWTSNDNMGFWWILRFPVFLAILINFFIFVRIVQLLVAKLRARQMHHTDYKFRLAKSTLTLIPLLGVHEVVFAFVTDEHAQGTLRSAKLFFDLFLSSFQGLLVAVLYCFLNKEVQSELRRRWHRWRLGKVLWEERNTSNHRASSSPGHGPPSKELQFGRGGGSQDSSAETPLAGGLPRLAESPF

hGLP-1R = hGLP-1R (Homo sapiens, UniProt P43220)
Sequence of hGLP-1R (P43220 24-463): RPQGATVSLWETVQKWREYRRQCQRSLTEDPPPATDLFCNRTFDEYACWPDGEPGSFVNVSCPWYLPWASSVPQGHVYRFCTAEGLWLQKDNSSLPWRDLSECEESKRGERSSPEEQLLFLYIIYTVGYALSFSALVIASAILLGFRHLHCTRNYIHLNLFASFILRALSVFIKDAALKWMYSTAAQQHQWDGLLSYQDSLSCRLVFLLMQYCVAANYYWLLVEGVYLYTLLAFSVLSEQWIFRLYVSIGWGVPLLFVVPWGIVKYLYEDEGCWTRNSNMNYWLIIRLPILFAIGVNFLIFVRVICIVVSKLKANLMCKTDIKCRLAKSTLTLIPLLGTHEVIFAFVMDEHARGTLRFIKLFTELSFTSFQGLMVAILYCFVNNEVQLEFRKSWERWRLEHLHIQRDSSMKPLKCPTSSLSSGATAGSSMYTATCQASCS

| Binder | Relative cAMP EC50 [1] [µM] | cAMP Rel EC50, nM (1% HSA) [1] [nM] | Relative cAMP EC50 [2] [µM] | cAMP Rel EC50, nM (1% HSA) [2] [nM] | Relative cAMP EC50 (hGLP-1R) [µM] | cAMP Rel EC50, nM (1% HSA) (hGLP-1R) [nM] |
| --- | --- | --- | --- | --- | --- | --- |
| YXQGTFTSDXSXXLDKKAQXAFIEXLIEXGPSSGEPPPSGSE (non-natural residues; Lys acylated AEEA-(γGlu)2-C18 diacid; C-terminal amide; synthetic construct; SITE 2: note = 2-Aminoisobutyric Acid; SITE 10: note = 3-(4-Pyridyl)-L-alanine; SITE 12: note = L-ornithine; SITE 13: note = alpha-methyl-leucine; SITE 17: note = Lysine is chemically modified through conjugation of the epsilon-amino group of the Lysine side chain with (2-[2-(2-) [Example 988] | 0.000198 | 11.8 | 0.00252 | 320 | 0.0095 | 743 |
| YXQGTFTSDXSQXLDXKAQXAFIEYLIAGGPSSGEPPPSGSE (non-natural residues; lipidated Lys; C-terminal amide; synthetic construct; SITE 2: note = 2-Aminoisobutyric Acid; SITE 10: note = 3-(4-Pyridyl)-L-alanine; SITE 13: note = alpha-methyl-leucine; SITE 16: note = L-ornithine; SITE 17: note = Lysine is chemically modified through conjugation of the epsilon-amino group of the Lysine side chain with (gamma-Gl)) [Example 1008] | 0.00014 | 15.2 | 0.00747 | 1010 | 0.00109 | 126 |
| YXQGTFTSDXSXXLDKKAQXAFIEYLIAGGPSSGAPPPSESE (Aib, 4Pal, Orn, αMeL, Me4Pal; acylated Lys; C-terminal amide; synthetic construct; SITE 2: note = 2-Aminoisobutyric Acid; SITE 10: note = 3-(4-Pyridyl)-L-alanine; SITE 12: note = L-ornithine; SITE 13: note = alpha-methyl-leucine; SITE 17: note = Lysine is chemically modified through conjugation of the epsilon-amino group of the Lysine side chain with (gamma-Gl)) [Example 1010] | 0.000159 | 15.1 | 0.0045 | 214 | 0.00289 | 218 |
| YXQGTFTSDXSXXLDKKAQXAFIEXLIEXGPSSGEPPPSGSE (Aib, 4Pal, Me4Pal, Orn, alpha-methyl-Leu, lipidated Lys, amide; synthetic construct; SITE 2: note = 2-Aminoisobutyric Acid; SITE 10: note = 3-(4-Pyridyl)-L-alanine; SITE 12: note = L-ornithine; SITE 13: note = alpha-methyl-leucine; SITE 17: note = Lysine is chemically modified through conjugation of the epsilon-amino group of the Lysine side chain with (gamma-Gl)) [Example 990] | 0.000115 | 9.87 | 0.00247 | 276 | 0.00578 | 557 |
| YXQGTFTSDXSXXLDXKAQXAFIEYLIAGGPSSGAPPPSGSE (non-natural residues; Lys acylated C18 diacid; C-terminal amide; synthetic construct; SITE 2: note = 2-Aminoisobutyric Acid; SITE 10: note = 3-(4-Pyridyl)-L-alanine; SITE 12: note = L-ornithine; SITE 13: note = alpha-methyl-leucine; SITE 16: note = L-ornithine; SITE 17: note = Lysine is chemically modified through conjugation of the epsilon-amino group of the Lys) [Example 1011] | – | 13.5 | – | 459 | – | 148 |
| YXQGTFTSDXSXXLDKKAQXAFIEYLIAGGPSSGAPPPSGSE (non-natural residues; lysine acylated with C18 diacid; C-terminal amide; synthetic construct; SITE 2: note = 2-Aminoisobutyric Acid; SITE 10: note = 3-(4-Pyridyl)-L-alanine; SITE 12: note = L-ornithine; SITE 13: note = alpha-methyl-leucine; SITE 17: note = Lysine is chemically modified through conjugation of the epsilon-amino group of the Lysine side chain with (gamma-Gl)) [Example 1009] | 0.00013 | 9.72 | 0.00421 | 268 | 0.0021 | 174 |
| YXQGTFTSDXSXXLDXKAQXQFIEXLIAGGPSSGAPPPSGSEE (non-natural residues (Aib, 4Pal, Orn, Me4Pal, αMeY); lipidated Lys; C-amide; synthetic construct; SITE 2: note = 2-Aminoisobutyric Acid; SITE 10: note = 3-(4-Pyridyl)-L-alanine; SITE 12: note = L-ornithine; SITE 13: note = alpha-methyl-leucine; SITE 16: note = L-ornithine; SITE 17: note = Lysine is chemically modified through conjugation of the epsilon-amino group of the Lys) [Example 992] | – | 12.5 | – | 863 | – | 643 |
| YXQGTFTSDXSXXLDXKAQXQFIEYLIAGGPSSGAPPPSGSEE (Lys acylated with (γGlu)2-C18 diacid; non-natural residues; C-amide; synthetic construct; SITE 2: note = 2-Aminoisobutyric Acid; SITE 10: note = 3-(4-Pyridyl)-L-alanine; SITE 12: note = L-ornithine; SITE 13: note = alpha-methyl-leucine; SITE 16: note = L-ornithine; SITE 17: note = Lysine is chemically modified through conjugation of the epsilon-amino group of the Lys) [Example 1000] | – | 15.5 | – | 501 | – | 279 |
| YXQGTFTSDXSQXLDXKAQXQFIEYLLAGGPSSGAPPPSGSEE ((γGlu)2-C18 diacid on Lys; non-natural residues; amide; synthetic construct; SITE 2: note = 2-Aminoisobutyric Acid; SITE 10: note = 3-(4-Pyridyl)-L-alanine; SITE 13: note = alpha-methyl-leucine; SITE 16: note = L-ornithine; SITE 17: note = Lysine is chemically modified through conjugation of the epsilon-amino group of the Lysine side chain with (gamma-Gl)) [Example 1006] | 0.000109 | 11.8 | 0.00428 | 315 | 0.00512 | 574 |
| YXQGTFTSDXSXXLDXKAQXEFIEXLIAGGPSSGAPPPSGSEE (non-natural residues; lipidated Lys (γGlu)2-C18 diacid; C-term amide; synthetic construct; SITE 2: note = 2-Aminoisobutyric Acid; SITE 10: note = 3-(4-Pyridyl)-L-alanine; SITE 12: note = L-ornithine; SITE 13: note = alpha-methyl-leucine; SITE 16: note = L-ornithine; SITE 17: note = Lysine is chemically modified through conjugation of the epsilon-amino group of the Lys) [Example 993] | – | 14.5 | – | 1860 | – | 1210 |
| YXQGTFTSDXSXXLDXKAQXXFIEXLIAGGPSSGAPPPSGSEE (Lys acylated with (γGlu)2-C18 diacid; non-natural residues; C-amide; synthetic construct; SITE 2: note = 2-Aminoisobutyric Acid; SITE 10: note = 3-(4-Pyridyl)-L-alanine; SITE 12: note = L-ornithine; SITE 13: note = alpha-methyl-leucine; SITE 16: note = L-ornithine; SITE 17: note = Lysine is chemically modified through conjugation of the epsilon-amino group of the Lys) [Example 994] | – | 30.8 | – | 1050 | – | 395 |
| YXQGTFTSDXSQXLDXKAQXQFIEXLLAGGPSSGAPPPSGSEE (non-natural residues, acylated Lys, C-terminal amide; synthetic construct; SITE 2: note = 2-Aminoisobutyric Acid; SITE 10: note = 3-(4-Pyridyl)-L-alanine; SITE 13: note = alpha-methyl-leucine; SITE 16: note = L-ornithine; SITE 17: note = Lysine is chemically modified through conjugation of the epsilon-amino group of the Lysine side chain with (gamma-Gl)) [Example 998] | – | 6.78 | – | 794 | – | 1470 |
| YXQGTFTSDXSXXLDXKAQXQFIEYLLAGGPSSGAPPPSGSEE (non-natural residues; (γGlu)2-C18 diacid on Lys; C-terminal amide; synthetic construct; SITE 2: note = 2-Aminoisobutyric Acid; SITE 10: note = 3-(4-Pyridyl)-L-alanine; SITE 12: note = L-ornithine; SITE 13: note = alpha-methyl-leucine; SITE 16: note = L-ornithine; SITE 17: note = Lysine is chemically modified through conjugation of the epsilon-amino group of the Lys) [Example 1002] | – | 11.6 | – | 197 | – | 1290 |
| YXQGTFTSDXSXXLDXKAQXXFIEXLLAGGPSSGAPPPSGSEE (non-natural residues; lipidated Lys (γGlu)2-C18 diacid; C-term amide; synthetic construct; SITE 2: note = 2-Aminoisobutyric Acid; SITE 10: note = 3-(4-Pyridyl)-L-alanine; SITE 12: note = L-ornithine; SITE 13: note = alpha-methyl-leucine; SITE 16: note = L-ornithine; SITE 17: note = Lysine is chemically modified through conjugation of the epsilon-amino group of the Lys) [Example 997] | – | 27.8 | – | 527 | – | 1880 |
| YXQGTFTSDXSQXLDXKAQXQFIEYLIAGGPSSGAPPPSGSEE (non-natural residues; Lys acylated C18 diacid via γGlu2; C-term amide; synthetic construct; SITE 2: note = 2-Aminoisobutyric Acid; SITE 10: note = 3-(4-Pyridyl)-L-alanine; SITE 13: note = alpha-methyl-leucine; SITE 16: note = L-ornithine; SITE 17: note = Lysine is chemically modified through conjugation of the epsilon-amino group of the Lysine side chain with (gamma-Gl)) [Example 1005] | 0.000152 | 14.5 | 0.00946 | 1670 | 0.00148 | 171 |
| YXQGTFTSDXSXXLDXKAQXXFIEYLLAGGPSSGAPPPSGSEE (non-natural residues; C18 diacid-(γ-Glu)2 acyl on Lys; C-terminal amide; synthetic construct; SITE 2: note = 2-Aminoisobutyric Acid; SITE 10: note = 3-(4-Pyridyl)-L-alanine; SITE 12: note = L-ornithine; SITE 13: note = alpha-methyl-leucine; SITE 16: note = L-ornithine; SITE 17: note = Lysine is chemically modified through conjugation of the epsilon-amino group of the Lys) [Example 1004] | – | 35.4 | – | 237 | – | 973 |
